Substrate in this data set: CC/C=C\C/C=C\C/C=C\C/C=C\C/C=C\CCCC(=O)O
In words: purified protein. Conditions: PBS, no detergent; O2 co-substrate; fit over all substrate concentrations up to 200 µM. It counts as biochemical, Myxococcus fulvus.

B1: MF-LOX1 (Myxococcus fulvus LOX1) (Myxococcus fulvus) (protein)
chain: MTVEYKLRIRTSTKLGAGTDANISVVLVGTRGESGPHVLDKPFHNDFEAGAEDVYSVQASDDVGALLLLRFGNTGGIAADWLLDHAWVTAGERQWSFPFFRWVRAGATVDVLEGTAKLARHAGCEREATARRELLEARRRMYPWRPAEATEGLPGALDLSEAQPLPKDELYRGLTEGSYEVVIARTLAAIKLHLPLLSKAWNGLVDIFDFFKGLEVPRLAPRWQDDLEFARQAVQGINPLHITLIPQLPQGMPLTDEDVKGVLSPGTTLARALDSKRIFLLDFDILEDIPMYRKVDEDGVEERRWAPAARCLLYLDDLRQLRPLAIQLGRDGGKDPVFTPNDDTYDWLAAKIYLRCSEGNTHQMVAHALRTHFVAEPFVMATMRNLPDPHPVYKLLRRHFRYTLAINEGARKGLLAAGGVFDDFIATGGPDKGHLQLGKKGYQRWKLTDNRPREDLEHRGVLDPAVLPYYPYRDDALPLWDALEEYVGGVLRYFYPTDADLEGDTEMQHWWKDLTEHGLPVDKLPCRELSRVDDLVDILTTVVFTVSVQHAAVNYLQYEHYAFVPNAPLCMRREPPRQKGTLCAEDLPEMIPSRSQTLWQVAIGRALSSFGDDEEYLLNEGGWREEYFQEPQVRALRERFEQRLRAQRDVVAARNAGAQVPYTVLSPDRIPCGITV
notes: full length, native protein 676 residues; N-terminal hexa-His tag kept, 32 extra N-terminal residues (pET28b); E. coli, Ni-agarose
The Km is the concentration of substrate that gives half-maximal velocity. As for B1, the Km worked out at 70 µM and the kcat entry was “(3.1 ± 1.2) x 10^−2 s^-1”.

(Values after PMC6612559, “Functional characterization of a novel arachidonic acid 12S‐lipoxygenase in the halotolerant bacterium Myxococcus fulvus exhibiting complex social living patterns” (MicrobiologyOpen, 2018).)
